Test [1] concerns the target DNA polymerase α-primase complex (human) (UniProt P09884).
For test [2] the target is unchanged. The source holds these as a separate data set.
Test [3] deals with full-length SV40 T antigen Tag_(1-708) (simian virus 40) (UniProt P03070). Kind of test: atomic force microscopy (volume analysis); 500 nM protein (or 250 nM each of M1 and M2) with gapped DNA substrate (48 nt ssDNA at the centre of ~500 bp, 3-5 nM) in 25 mM HEPES-NaOH pH 7.5, 25 mM sodium acetate, 10 mM magnesium acetate, 1 mM ATP, 1 h at room temperature; cross-linked with 0.1% glutaraldehyde; volumes of complexes on the ssDNA stretch.

Test [4] addresses wt Tag_(131-627) (simian virus 40). The test is described as above.
Test [5] shares this target. As to the kind of experiment: SEC; Superdex 200 16/600 column; proteins in solution; data not shown. Background: Size exclusion chromatography separates by hydrodynamic size, large species first.

For orientation: stoichiometry N means the number of molecules, sites or subunits per partner or assembly.

Several values for one entry are separate records, joined by “and”; a condition that tells them apart may be missing. Equal entries are not always repeated.

Sequence of UniProt P09884 (P09884 whole entry, chain 1 of 4): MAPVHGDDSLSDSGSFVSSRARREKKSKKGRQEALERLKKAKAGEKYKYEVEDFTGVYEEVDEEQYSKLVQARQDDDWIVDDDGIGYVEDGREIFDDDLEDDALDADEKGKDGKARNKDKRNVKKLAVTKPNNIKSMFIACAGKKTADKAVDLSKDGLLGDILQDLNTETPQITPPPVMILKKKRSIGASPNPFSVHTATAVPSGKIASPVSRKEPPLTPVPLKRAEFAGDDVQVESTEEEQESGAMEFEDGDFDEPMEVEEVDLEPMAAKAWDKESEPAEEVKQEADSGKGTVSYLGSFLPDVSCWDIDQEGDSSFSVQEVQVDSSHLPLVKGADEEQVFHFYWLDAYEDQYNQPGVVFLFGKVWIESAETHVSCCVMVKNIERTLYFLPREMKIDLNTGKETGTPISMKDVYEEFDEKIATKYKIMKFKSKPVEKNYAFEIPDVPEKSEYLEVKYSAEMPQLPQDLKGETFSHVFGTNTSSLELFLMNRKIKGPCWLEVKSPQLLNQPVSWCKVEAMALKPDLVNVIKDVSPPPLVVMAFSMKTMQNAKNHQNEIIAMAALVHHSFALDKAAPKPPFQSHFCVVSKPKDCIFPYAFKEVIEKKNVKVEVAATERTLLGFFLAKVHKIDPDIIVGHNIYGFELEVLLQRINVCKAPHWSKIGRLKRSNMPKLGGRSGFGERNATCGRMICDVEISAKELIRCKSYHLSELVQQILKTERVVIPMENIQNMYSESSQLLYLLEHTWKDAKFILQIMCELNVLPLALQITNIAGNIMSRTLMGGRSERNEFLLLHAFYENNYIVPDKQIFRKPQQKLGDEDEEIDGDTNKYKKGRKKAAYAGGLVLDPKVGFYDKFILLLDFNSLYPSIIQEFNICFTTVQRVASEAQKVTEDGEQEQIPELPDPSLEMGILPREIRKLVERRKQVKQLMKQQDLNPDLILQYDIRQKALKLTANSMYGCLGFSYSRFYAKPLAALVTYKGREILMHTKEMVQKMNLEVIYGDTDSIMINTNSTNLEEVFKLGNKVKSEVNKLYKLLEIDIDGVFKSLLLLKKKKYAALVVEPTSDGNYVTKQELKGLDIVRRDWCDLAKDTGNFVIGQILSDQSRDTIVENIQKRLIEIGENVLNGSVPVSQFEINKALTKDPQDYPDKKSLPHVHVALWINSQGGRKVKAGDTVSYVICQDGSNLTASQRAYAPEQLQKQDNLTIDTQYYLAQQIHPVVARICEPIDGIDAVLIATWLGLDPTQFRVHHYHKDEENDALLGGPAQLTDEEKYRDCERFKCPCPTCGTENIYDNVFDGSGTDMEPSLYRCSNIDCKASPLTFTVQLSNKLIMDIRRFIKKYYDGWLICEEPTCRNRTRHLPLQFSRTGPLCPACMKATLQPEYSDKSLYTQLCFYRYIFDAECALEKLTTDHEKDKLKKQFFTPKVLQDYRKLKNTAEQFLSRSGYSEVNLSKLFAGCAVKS
Sequence of UniProt P09884 (Q14181 whole entry, chain 2 of 4, further chain): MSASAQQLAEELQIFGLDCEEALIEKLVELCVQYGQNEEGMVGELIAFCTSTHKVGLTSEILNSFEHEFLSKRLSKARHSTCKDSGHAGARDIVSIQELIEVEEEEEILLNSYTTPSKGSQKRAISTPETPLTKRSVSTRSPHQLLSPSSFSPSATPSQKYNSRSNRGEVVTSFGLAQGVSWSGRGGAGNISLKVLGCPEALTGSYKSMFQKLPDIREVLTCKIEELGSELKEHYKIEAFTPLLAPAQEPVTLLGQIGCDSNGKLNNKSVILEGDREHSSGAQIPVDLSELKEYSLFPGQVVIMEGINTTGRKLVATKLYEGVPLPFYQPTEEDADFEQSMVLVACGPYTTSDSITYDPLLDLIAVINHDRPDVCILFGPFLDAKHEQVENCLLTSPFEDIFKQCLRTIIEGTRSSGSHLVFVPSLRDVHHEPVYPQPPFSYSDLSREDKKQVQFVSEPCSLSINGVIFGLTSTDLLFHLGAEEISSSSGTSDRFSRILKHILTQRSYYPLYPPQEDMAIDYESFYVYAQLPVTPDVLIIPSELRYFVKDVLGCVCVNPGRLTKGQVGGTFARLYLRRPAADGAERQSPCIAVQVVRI
Sequence of UniProt P09884 (P49643 whole entry, chain 3 of 4, further chain): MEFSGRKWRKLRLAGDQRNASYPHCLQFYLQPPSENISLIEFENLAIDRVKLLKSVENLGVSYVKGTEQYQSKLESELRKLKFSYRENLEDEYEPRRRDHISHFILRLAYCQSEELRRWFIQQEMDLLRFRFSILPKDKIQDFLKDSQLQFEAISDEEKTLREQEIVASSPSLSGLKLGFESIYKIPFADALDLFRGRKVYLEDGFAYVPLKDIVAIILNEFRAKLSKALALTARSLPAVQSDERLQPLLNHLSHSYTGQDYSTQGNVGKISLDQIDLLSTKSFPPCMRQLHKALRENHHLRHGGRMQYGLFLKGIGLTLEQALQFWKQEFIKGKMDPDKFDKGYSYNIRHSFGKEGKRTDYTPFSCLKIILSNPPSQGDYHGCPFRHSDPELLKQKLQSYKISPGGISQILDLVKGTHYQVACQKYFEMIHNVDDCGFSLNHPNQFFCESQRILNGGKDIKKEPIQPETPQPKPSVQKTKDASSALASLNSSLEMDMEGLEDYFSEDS
Sequence of UniProt P09884 (P49642 whole entry, chain 4 of 4, further chain): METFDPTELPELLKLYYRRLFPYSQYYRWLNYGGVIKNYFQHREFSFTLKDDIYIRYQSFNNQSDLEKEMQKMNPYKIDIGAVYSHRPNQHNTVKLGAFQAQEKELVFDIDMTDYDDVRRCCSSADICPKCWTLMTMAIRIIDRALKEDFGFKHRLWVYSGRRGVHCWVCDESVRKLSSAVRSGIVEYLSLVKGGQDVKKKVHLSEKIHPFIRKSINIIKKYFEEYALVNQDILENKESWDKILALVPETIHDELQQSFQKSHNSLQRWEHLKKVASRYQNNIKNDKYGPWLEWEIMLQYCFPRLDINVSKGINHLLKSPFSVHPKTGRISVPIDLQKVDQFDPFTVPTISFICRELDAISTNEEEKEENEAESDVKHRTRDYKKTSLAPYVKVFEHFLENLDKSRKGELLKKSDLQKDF

In test [1], “Tag_(131-627)(L286D/R567E) (domain or fragment)” displayed a primase-initiated DNA synthesis (dNMP incorporation) by Pol-prim on RPA-bound ssDNA (0.5 µg RPA), 0.3 and 0.6 µg Tag variant, stimulation against RPA without Tag of 10.4 fold. The substance further had a primase-initiated DNA synthesis (dNMP incorporation) by Pol-prim on ΦΧ174 ssDNA, 0.3 and 0.6 µg Tag variant, stimulation against Pol-prim alone in test [2] of 4 fold.

“Tag_(131-627)(V350E/P417D) (domain or fragment)” yielded a primase-initiated DNA synthesis (dNMP incorporation) by Pol-prim on ΦΧ174 ssDNA, 0.3 and 0.6 µg Tag variant, reduction against Pol-prim alone in test [2] of 65 % reduction.

In turn, “full-length SV40 T antigen Tag_(1-708) (from UniProt P03070 1-708) (natural protein)” gave a primase-initiated DNA synthesis (dNMP incorporation) by Pol-prim on RPA-bound ssDNA (0.5 µg RPA), 0.3 and 0.6 µg Tag, stimulation against RPA without Tag in test [1] of 11.5 fold. The stoichiometry N in test [3] was 2.

As to wt Tag_(131-627) (domain or fragment), the stoichiometry N is 6 and 12 in test [4]; 6 in test [5]. Besides, in test [2], the primase-initiated DNA synthesis (dNMP incorporation) by Pol-prim on ΦΧ174 ssDNA, 0.3 and 0.6 µg Tag variant, inhibition against Pol-prim alone turned out to be 96 % inhibition.

The values above are taken from publication PMC8886539.
